The values that follow come from the supplement of paper PMC12042874.

± gives the uncertainty stated by the source.

The series can be described thus: amyloid nucleation score (Sup35N fusion, yeast selection) (log enrichment); library NNK2; higher = more nucleation; inactive = no reads after selection. In outline: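 Plasmid inserts were Illumina-sequenced at input and output from psi-negative yeast expressing Sup35N fused to peptides of 20 random codons. The yeast were induced with 100 μM copper sulfate for 24 hours and grown 7 days at 30°C on medium lacking adenine and uracil, and sequences with under 100 input reads were excluded. Nucleation score is the DiMSum log enrichment of output over input reads, centred on the mode score of non-aggregating sequences.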
Regarding FQCSYVWVKLWHILN, the amyloid nucleation score was -0.887 ± 1.1.

On to FQDTLDLRRLRYWCYPKLGL, for which the amyloid nucleation score is -0.69 ± 0.55.

On to FQGVVSRYSYYS, for which the amyloid nucleation score amounted to 1.81 ± 0.22.

Take FQIMKAYDTLPFLVYPVTGD: the amyloid nucleation score is -0.117 ± 0.79.

The substance FQSDIKVIIMSTCTISGGRY had an amyloid nucleation score of 1.33 ± 0.25.

As for FRALFSNVVRVDMAMAAGFL, the amyloid nucleation score was -1.79 ± 0.78.

Consider FREGSSIGFVLPTENVLMT, for which the amyloid nucleation score turned out to be 0.256 ± 1.

Substance FRFCHCLEFQVY showed an amyloid nucleation score of 0.126 ± 0.5.

For FRKCI, the amyloid nucleation score amounted to 1.25 ± 0.38.

For FRRFCQDILYICMRKDMVQG, the amyloid nucleation score worked out at 0.833 ± 0.8.

Consider FRRRQNRAHKYGALNYSMGS, for which the amyloid nucleation score entry was “inactive”.

For the substance FRTQCHRAMDRASCRVLVRP, the amyloid nucleation score result is “inactive”.

FRVGLLVGISMVDFTLGVNA had an amyloid nucleation score of 0.416 ± 0.8.

For FRVSSIWDRLVATLGNMCRS, the amyloid nucleation score entry was “inactive”.

Regarding FRYERTGRAMSTASVVTTTV, the amyloid nucleation score is 1.04 ± 0.68.

Regarding FRYLYVLYGFYMVVTWYLRV, the amyloid nucleation score is -0.088 ± 0.63.

Take FSIISGCFRNVVDLLRMLNL: the amyloid nucleation score was -1.2 ± 1.1.

Consider FSLFWWMSHITREWISCMCM, for which the amyloid nucleation score is -0.895 ± 1.1.

With FSMMFIL, the amyloid nucleation score turned out to be 3.57 ± 0.075.

FSMRFRKVFICKMDIQQAYV: the amyloid nucleation score turned out to be 0.13 ± 1.1.

Substance FSNLPGH displayed an amyloid nucleation score of 1.98 ± 0.15.

For the substance FSPIYRHGHKCML, the amyloid nucleation score is -0.672 ± 0.54.

For FSPLCYSYV, the amyloid nucleation score was -1.22 ± 1.

Consider FSQFMKLNSRFIRRYMWCVL, for which the amyloid nucleation score is -0.891 ± 0.55.

Take FSRTTAHMTLDMYFTGRDGY: the amyloid nucleation score worked out at 5.79 ± 0.058.

As for FSSFVNREKMFIHFSNVVYF, the amyloid nucleation score amounted to 1.44 ± 0.1.

As for FSSIDPPNTRSAVSFRMTSP, the amyloid nucleation score is 0.065 ± 0.65.

On to FSVRGRWAHLWMK, for which the amyloid nucleation score came to 0.443 ± 0.42.

In turn, FSVTMF showed an amyloid nucleation score of -0.197 ± 0.33.

FSVYRETERLGMSFRVRLWM came in with an amyloid nucleation score of 5.25 ± 0.073.

Take FSWFDWKGYVLSWIRSYSSE: the amyloid nucleation score entry was “inactive”.

The substance FSWVIYYE returned an amyloid nucleation score of -1.27 ± 1.1.

FSYMYPRGLLVINMSGVQVN yielded an amyloid nucleation score of 1.22 ± 0.17.

Take FTCAYA: the amyloid nucleation score result was “inactive”.

Substance FTFIHFLCVSVHLLNSWS yielded an amyloid nucleation score of 0.42 ± 0.56.

For FTGIRRGLWLS, the amyloid nucleation score came to 0.405 ± 0.56.

FTLDNMSLQTRTLMRYE: the amyloid nucleation score was -0.863 ± 0.49.

For the substance FTNIGSEYDMTGLNEGSSMP, the amyloid nucleation score is -0.411 ± 0.29.

FTSFCMMKGPGLY: the amyloid nucleation score is -1.44 ± 1.1.

FTTMESDGMVFGL showed an amyloid nucleation score of 3.75 ± 0.061.

FTVGSMSGDFWLLCWYLR: the amyloid nucleation score stood at 3.09 ± 0.15.

For the substance FTVRQTKAAGECSSKQWGTL, the amyloid nucleation score is 3.18 ± 0.098.

Substance FTWCRWVFWRNCYNDMEEDA had an amyloid nucleation score of -1.01 ± 1.1.

FTWVYMHNIIFLLGSRLYIK: the amyloid nucleation score entry was “inactive”.

For the substance FVDYVTCSQYVNIFRDTLGL, the amyloid nucleation score is -0.677 ± 0.38.

Substance FVECILASLWTRFEKIRMAC came in with an amyloid nucleation score of -0.108 ± 1.1.

For FVEIIAKWILTI, the amyloid nucleation score is 0.033 ± 0.6.

Regarding FVGTLMDPVSLMKLRW, the amyloid nucleation score was found to be 0.787 ± 0.31.

For the substance FVHFMRVAASRNTNFYNLLW, the amyloid nucleation score entry was “inactive”.

In turn, FVHKSCSAALTTLGTVAD came in with an amyloid nucleation score of 4.333 ± 0.042.

For the substance FVKGS, the amyloid nucleation score entry is “inactive”.

In turn, FVPAVEFVHHFAVWVWRE gave an amyloid nucleation score of 0.072 ± 1.1.

For FVPFYYKADKLTILSS, the amyloid nucleation score entry is “inactive”.

FVTFWDYWSSRGDPMMSYRV showed an amyloid nucleation score of 0.13 ± 0.49.

In turn, FWALCVASVICYFVRMLSLA showed an amyloid nucleation score of 0.169 ± 0.3.

On to FWCYELDNPDGYLIFLHQPV, for which the amyloid nucleation score entry is “inactive”.

As for FWGIMNSILTETLL, the amyloid nucleation score was -1.53 ± 1.1.

FWLSSESANYTCFKRYVG: the amyloid nucleation score was determined as 0.25 ± 0.47.

In turn, FWRVLLSTLHTIFNMRNNMP registered an amyloid nucleation score of -1.28 ± 0.54.

In turn, FWSVEMMRHTSSFIFAEWNK came in with an amyloid nucleation score of -0.033 ± 0.2.

FYCIARERLRMVNFT had an amyloid nucleation score of -0.845 ± 0.62.

Take FYCLCTTDGICLEDLL: the amyloid nucleation score is -0.097 ± 1.1.

Turning to FYESKMGVMINFNWFYDTTS, the amyloid nucleation score was determined as 6.88 ± 0.069.

In the case of FYFLLG, the amyloid nucleation score was 0.587 ± 0.32.

For the substance FYGQMRSKVLCLFH, the amyloid nucleation score is -1.02 ± 0.76.

In turn, FYGRCLTFTAHPSFSRFAR returned an amyloid nucleation score of 0.333 ± 0.61.

Take FYGSEVIMSTDVQGNGEYGA: the amyloid nucleation score was -0.791 ± 0.62.

With FYINVRLYARVACRCMRVPC, the amyloid nucleation score stood at 5.4 ± 0.076.

In turn, FYKTLCKLGWAPWS came in with an amyloid nucleation score of -0.744 ± 0.32.

As for FYLIIDPIPMDCSGIIVNCY, the amyloid nucleation score result is “inactive”.

Take FYLLVFDLHDSCL: the amyloid nucleation score entry is “inactive”.

Take FYLNRKRVYLSDGCRAFR: the amyloid nucleation score stood at 0.252 ± 0.51.

Regarding FYLSAFRHVMRASCLDDLSK, the amyloid nucleation score result is “inactive”.

The substance FYLWATTYQCRFFIRYAKFS gave an amyloid nucleation score of 2.97 ± 0.084.

As for FYMLYYQIAVSCHLCFDILV, the amyloid nucleation score result is “inactive”.

FYNIRPETVAKAMKGLGWST returned an amyloid nucleation score of -0.136 ± 0.37.

As to FYQGLATILSSSLVPIHRHQ, the amyloid nucleation score result was “inactive”.

FYQVNLPSCLNSDDNRCS: the amyloid nucleation score result was “inactive”.

FYRGM showed an amyloid nucleation score of -0.547 ± 0.5.

As for FYRGSQVMPR, the amyloid nucleation score was -0.647 ± 1.1.

The substance FYSCCPWLSLRSAMIYVMIS gave an amyloid nucleation score of 1.61 ± 0.22.

As to FYSLTDPCICGCH, the amyloid nucleation score is -0.341 ± 0.79.

As to FYTTRMYLVFSYFV, the amyloid nucleation score worked out at 3.29 ± 0.064.

Take FYWAKPSHWAPGFINGQDVL: the amyloid nucleation score is -1.19 ± 0.54.

In the case of FYYNCGWSCNNVTWFSRQFV, the amyloid nucleation score stood at 3.04 ± 0.12.

As for FYYVFYLNSLAVAGHLRILD, the amyloid nucleation score entry is “inactive”.

With GAGHNNLLEDAFTSRSVTAR, the amyloid nucleation score was determined as 0.489 ± 0.28.

As for GAIRFK, the amyloid nucleation score came out at 0.223 ± 0.54.

In the case of GAKIGKMDVLGFDGDGLIYI, the amyloid nucleation score was found to be 1.42 ± 0.1.

For GASVVDKSSRPCGAILEHSG, the amyloid nucleation score was found to be 0.894 ± 0.74.

As for GAWFQTYWLWCEYMAFIQKL, the amyloid nucleation score was found to be 1.86 ± 0.17.

In the case of GCHSFLPGYFTWNYDSDNYF, the amyloid nucleation score result is “inactive”.

GCMLSRMNTGLSRLGLFFDS had an amyloid nucleation score of -1.25 ± 0.55.

Turning to GCTGGRIK, the amyloid nucleation score is -0.088 ± 0.49.

Consider GCVRIMPCVFGSVRWHWYVW, for which the amyloid nucleation score was found to be 1.28 ± 0.25.

GDDDVVVDDQNLKCDGYTDL registered an amyloid nucleation score of 1.03 ± 0.24.

As to GDKSIRSPLAV, the amyloid nucleation score is -0.087 ± 0.34.

GDVCNVLLAYWVFVTLSFSV came in with an amyloid nucleation score of 1.5 ± 0.58.

As for GDVDEWCLTGLGLSNIMVGQ, the amyloid nucleation score is 1.52 ± 0.58.

The substance GDYSCVHQVRKIDM gave an amyloid nucleation score of 0.162 ± 0.18.

As for GEGQNEVATHLYCQLAILPV, the amyloid nucleation score turned out to be 0.28 ± 0.46.

In turn, GEKTVLVYMVG returned an amyloid nucleation score of 4.9 ± 0.07.
